Experimental data reported in the supplement of paper PMC11865577.

The sequences below were run on TO-N3-2 (biotin conjugate) (assay: pull-down binding Z-score (relative to library population); higher = stronger binding). Conditions: RNA library: Library-2.
How it was run: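 Cy5- or Cy3-end-labelled RNA library (1 μg) was heat-folded in phosphate/NaCl/KCl buffer and incubated 60 min at 25 °C with streptavidin beads carrying 100 pmol biotin-conjugated small molecule. After three washes, bound RNA was eluted in hot SDS and hybridised 20 h at 55.5 °C to a DNA barcode microarray. Binding was scored by subtracting a beads-only control, averaging barcoded replicate probes after dropping highest and lowest, and converting to a Z-score against library mean and standard deviation.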

| Sequence | pull-down binding Z-score |
| --- | --- |
| AGUGUUUGCCUAGGUUCUUUAAUCUACUCAACCGCU | -0.432 |
| AGUUCAAGAAAUUCAACU | -0.672 |
| AGUUCAAGAACUUUACUCUCCAAUUUUUCUUAUUGUUGCGGCAAUAGUGUUUAUAACACUUUGCUUCACACUCAAAAGAAAGACAGAAUGAUUGAACU | -1.13 |
| AGUUGCUUACUCUAAUAACU [DMSMaPseq_invitro_SARS-CoV-2_Motif_421] | -0.822 |
| AGUUGUGAUCAACU | -1.24 |
| AGUUUACGCCCUGACACACGUUAUGUGCUCAUGGAUGGCU | -0.321 |
| AGUUUUUGUACACAAUUAAACCGUGCUUUAACU | -1.04 |
| AUAAAAUAGAAGAAUUAUUCUAUUCUUAU | -1.22 |
| AUAAACCACCCAUUAGUUUUCCAUUGUGUGCUAAUGGACAAGUUUUUGGUUUAU | -1.1 |
| AUAAAGAAAUGUAUCUAAAGUUGCGUAGUGAUGUGCUAUUACCUCUUACGCAAUAUAAUAGAUACUUAGCUCUUUAU | -0.61 |
| AUAACAAUACUAGAUGGAAUUUCACAGUAUUCACUGAGACUCAUUGAUGCUAUGAUGUUCACAUCUGAUUUGGCUACUAACAAUCUAGUUGU | -0.351 |
| AUAAGAAAGACAAUUCUUAU [DMSMaPseq_invitro_SARS-CoV-2_Motif_114] | -1.45 |
| AUAAUAAGAGGCUGGAUUUUUGGUACUACUUUAGAUUCGAAGACCCAGUCCCUACUUAUUGU | -0.612 |
| AUACCACUUAUGUACAAAGGACUUCCUUGGAAUGUAGUGCGUAU | 0.76 |
| AUACCUGCACGUGCUCGUGUAGAGUGU | -0.468 |
| AUAGAUUAUGUACCACUAAAGUCUGCUACGUGUAUAACACGUUGCAAUUUAGGUGGUGCUGUCUGU | -0.77 |
| AUAUAACUUCUAAAGAAACUUUGUAU | -1.1 |
| AUAUGUUUACACCACUAAUUCAACCUAUUGGUGCUUUGGACAUAU [DMSMaPseq_invitro_SARS-CoV-2_Motif_171] | -0.719 |
| AUCAAGACUAUUCAACCAAGGGUUGAAAAGAAAAAGCUUGAU | -1.25 |
| AUCACUAGGUUUCAAACUUUACUUGCUUUACAUAGAAGUUAUUUGACUCCUGGUGAU | -1.03 |
| AUCCGAUUUACAGGAU | -1.16 |
| AUCUACAAUGAU [DMSMaPseq_invitro_SARS-CoV-2_Motif_243] | -1.55 |
| AUCUGAAUUCUUCUAGAGUUCCUGAU | -0.858 |

| Sequence | pull-down binding Z-score |
| --- | --- |
| AUCUUAGGGAAUUUGUGUUUAAGAAUAUUGAUGGUUAUUUUAAAAUAUAUUCUAAGCACACGCCUAUUAAUUUAGUGCGUGAUCUCCCUCAGGGU | -0.222 |
| AUCUUCUGCAGGCUGCUUACGGUUUCGUCCGUGUUGCAGCCGAUCAUCAGCACAUCUAGGUUUUGUCCGGGUGUGACCGAAAGGUAAGAU [DMSMaPseq_invitro_SARS-CoV-2_Multi_2_ComplexLevel_1] | -0.919 |
| AUCUUUCUGUGCUUUUGCUGUAGAUGCUGCUAAAGCUUACAAAGAU | -0.263 |
| AUGAACCACAAAUCAU [DMSMaPseq_invitro_SARS-CoV-2_Motif_444] | -1.03 |
| AUGAAUCUCUCAU [SHAPE_invivo_SARS-CoV-2_Motif_473] | -0.958 |
| AUGAGAAGUGCUCUGCCUAUACAGUUGAACUCGGUACAGAAGUAAAUGAGUUCGCCUGUGUUGUGGCAGAUGCUGUCAU [SHAPE_invitro_SARS-CoV-2_Motif_53] | 2.07 |
| AUGAGGUUUAGAAGAGCUUUUGGUGAAUACAGUCAUGUAGUUGCCUUUAAUACUUUACUAUUCCUUAU | -0.689 |
| AUGAGUACGAACUUAUGUACUCAU | -1.18 |
| AUGAUGUUUCUUUUUUAGCACAU | -1.28 |
| AUGCAUUCUGCAU [SHAPE_invivo_SARS-CoV-2_Motif_273] | -1.32 |
| AUGCCAACUAUUUUCUUUGCUGGCAU | -1.13 |
| AUGCCUUUUUACCUUUUGCUAUGGGUAUUAUUGCUAUGUCUGCUUUUGCAAUGAUGUUUGUCAAACAUAAGCAUGCAU [DMSMaPseq_invitro_SARS-CoV-2_Multi_36_ComplexLevel_1] | -0.261 |
| AUGCUGACGAUGGUCAUUUUGUCAGCAU [IAV_invivo_M1_M2_7_Motif_18+IAV_invivo_M1_M2_7_Motif_18] | -0.84 |
| AUGCUGUUACAGCGU | -1.07 |
| AUGCUUGGAACAGGAAGAGAAUCAGCAACUGUGUUGCUGAUUAUUCUGUCCUAUAUAAUUCCGCAU [DMSMaPseq_invitro_SARS-CoV-2_Motif_399] | -0.139 |
| AUGGCCCCGAUUUCAGCUAU [SHAPE_invivo_SARS-CoV-2_Motif_151] | -0.0238 |
| AUGGCUGAUCAAGCUAU [DMSMaPseq_invitro_SARS-CoV-2_Motif_216] | -0.747 |
| AUGGUAAGUGCGAUACUUACCUG [U1snRNP5ss-24] | 0.974 |
| AUGGUCUUUGUUCUUUUUUUUGUAUGAAAAUGCCUUUUUACCUUUUGCUAUGGGUAUUAUUGCUAU | -0.569 |
| AUGGUGCUAACAAAGACGGCAUCAU [SHAPE_invivo_SARS-CoV-2_Motif_545] | -0.639 |
| AUGGUUAUCUUACUUCUUCUUCUAAAACACCUGAAGAACAUUUUAUUGAAACCAU | -1.01 |
| AUGUACAUCUUCUUUGCAUCAUUUUAUUAUGUAUGGAAAAGUUAUGUGCAU | -1.44 |
| AUGUACUUGGAUUGGCUGCAAUCAUGCAAUUGUUUUUCAGCUAUUUUGCAGUACAU | -0.271 |

| Sequence | pull-down binding Z-score |
| --- | --- |
| AUGUCAUAUUGGAGUUGGACUGCAGGGCUUCCUUUACACAAUAAAUAUUGUAUGAAGUGCUGAUGUAACCUUUACUGCAGCAUGACAU [hsa-mir-3976] | 0.0127 |
| AUGUUUGUCAAACAUAAGCAU [DMSMaPseq_invitro_SARS-CoV-2_Motif_200] | -0.806 |
| AUUACUGCAAAAUGGUAUGAAUGGACGUACCAUAUUGGGUAGU [DMSMaPseq_invitro_SARS-CoV-2_Motif_194] | -0.151 |
| AUUAGAGAAAACAACAGAGUUGUUAUUUCUAGU [DMSMaPseq_invitro_SARS-CoV-2_Motif_378] | -0.787 |
| AUUAUGAGGACUUUUAAAGUUUCCAUUUGGAAUCUUGAUUACAUCAUAAACCUCAUAAU | -1.25 |
| AUUAUGUGUACCUUCCUUACCCAGAUCCAUCAAGAAUCCUAGGGGCCGGCUGUUUUGUAGAUGAUAUCGUAAAAACAGAUGGUACACUUAUGAU [DMSMaPseq_invitro_SARS-CoV-2_Multi_47_ComplexLevel_1] | 0.511 |
| AUUCUAUUCUAUUCUAUUCU [r(AUUCU)4] | -0.629 |
| AUUCUGAAGUUGUUCUUAAAAAGUUGAAGAAGUCUUUGAAU [DMSMaPseq_invitro_SARS-CoV-2_Motif_213] | -0.353 |
| AUUGACAUUAAUGGCAAUCUUCAUCCAGAUUCUGCCACUCUUGUUAGU [DMSMaPseq_invitro_SARS-CoV-2_Motif_73] | -0.113 |
| AUUGGCGACCCUGCUCAAU [DMSMaPseq_invitro_SARS-CoV-2_Motif_311] | -0.232 |
| AUUGGUGCAGGUAUAUGCGCUAGU | -0.926 |
| AUUGUUACAUAAACCUAUUGUUUGGCAUGUUAACAAU | -0.663 |
| AUUGUUCAACUUAGUGAAAUUAGUAUGGACAAU | -0.828 |
| AUUGUUGUCGCUUCCAAGAAAAGGACGAAGAUGACAAU [DMSMaPseq_invitro_SARS-CoV-2_Motif_245] | -0.371 |
| AUUUGAACUCUACUAAUGUCACUAUUGCAACCUACUGUACUGGUUCUAUACCUUGUAGUGUUUGUCUUAGUGGUUUAGAU | -0.913 |
| AUUUUUCUAAACUGAUAAAU [DMSMaPseq_invitro_SARS-CoV-2_Motif_131] | -1.08 |
| CAAAUGUGCCUUUCAACUCUCAUGAAGUGUGAUCAUUGUGGUGAAACUUCAUGGCAGACGGGCGAUUUUG | 0.555 |
| CAACAAAAGUUG [SHAPE_invivo_SARS-CoV-2_Motif_413] | -1.52 |
| CAACAAUGUGUGAUAUCAGACAACUACUAUUUGUAGUUGAAGUUGUUG | -0.217 |
| CAACCUAAAUAGAGGUAUG | -0.591 |
| CAACGGUACUAUUACCGUUG | -1.59 |
| CAACGUAAGUUG [DMSMaPseq_invitro_SARS-CoV-2_Motif_215] | -1.6 |
| CAACUCUCAUGAAGUGUGAUCAUUGUGGUGAAACUUCAUGGCAGACGGGCGAUUUUGUUAAAGCCACUUGCGAAUUUUG | 0.0444 |
